Results published in the supplement of paper PMC9170038.

Test system: MS2 coat protein
Experiment: apparent KD of MS2 coat protein; higher = weaker reporter binding
Conditions: Eterna round: R107; input ligand: theophylline 20 uM
Description: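 RNA-MaP round R107: designed RNA switches with theophylline, tryptophan, arginine or FMN aptamers are transcribed on-chip within common flanks. They are titrated with SNAP-549-labelled MS2 coat protein in RNA-MaP buffer (100 mM Tris pH 7.5, 80 mM KCl, 4 mM MgCl2), without ligand or with the indicated ligand. Median apparent KD per design.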

Sequence	apparent KD of MS2 coat protein [µM]
UCAUUUUUCACGGCCGCCACUUCAAGGUCCUGAGGCUGGGCAACACAUGAGGAUCACCCAUGUCGAAGGACCGGGUGAAGCUACC [theeternabot_sameState_MS2_Trp_B_34]	0.248
UGUAUGUGAUCUGAUACCAGCUAAUAAGCUUGAGGAUCACCCAAGUGGAGCGGAAACGCAGGCCCUUGGCAGCAGAUCGCAUACU [Denovo 9 #StaticStem #AlternativeMS2]	0.0344
AGCAACUAGUCGGCCGCCACUCAUAUUACAUGAGGAUCACCCAUGUAUACAUGGUUGUUAUAUUUGAGGACCGGGACAGUUGCAU [JR_SSTryptoB_Sub018]	0.0699
UAAGCGCGAGGAGACGGAACCAAUCUUGUUCGAGGACCGGUACGGCCGCCACUCGGCGUAAAACAUGAGGAUCACCCAUGUGCAA [theeternabot_exclusion_MS2_Trp_A_18]	0.0156
GUAAUUUAUUGAAGGAGCGUCGAAAAUGGGUAAACAUGAGGAUCACCCAUGUAAAGGGAACGACAGGUAGGUCGCAAUAGGUUAC [AstromonsSSArgB#29]	0.252
ACAUGAGGAUCACCCAUGUUCAUGCGGGAAGGAGCGUGCGGAAGCACAGGUAGGUCGCCCUCAAUAUCUAACGUUACGUUCAUGA [#26 Same State - Arginine A]	0.0184
GUCGGAGUCUGAAGGAGCGACAUGAGGAUCACCCAUGUCUCCCGUUAUGGGAGUUCCUUAGGUCAGGUAGGUCGCAGACUCCGAC [#1 Exclusion - Arginine B Attempt #25 (Inspired by Omei)]	0.145
UUGUGGCGCUCGGCCGCCACUCCGACAUGAGGAUCACCCAUGUUCUACAUGAGGAUCACCCAUGUGAGGACCGGGAGACACUUCC [Exclusion Tryptophan B GF13]	0.109
GAGCUGAUGUAGGCCGGAUAUCCGGGAGAUACCAGUACAGAAAUGUACCCUUGGCAGCUCUUUCUUACAUGAGGAUCACCCAUGU [Ex Theophylline A 27]	0.0154
UGUAUGUGAUCUGAUACCAGUCCAACUGGUAAAGCACGAGGAUCACCCGUGUAAAAUUGGGACCCUUGGCAGCAGAUCGCAUACU	0.352
GGAUGGAACUCGGCCGCCACUGGUGAUCCUAAUGUACAUGAGGAUCACCCAUGUACAUGAGAAGAUAGGACCGGGAGAUAAGGGA [Tryptophan B V4 (+4G)]	0.0243
AGCUCUGAUACGGCCGCCACUAGAUGGUGUUGUAAGAGACGCCUACAUGAGGAUCACCCAUGUCAUAGGACCGGGUAUAAAUACA [theeternabot_sameState_MS2_Trp_B_8]	0.0307
AAGAAGUUUUGAUUUUUAUGAAGUAGUGAUACCAGUUAAGAAAGAGACCCUUGGCAGCGCAACAUGAGGAUCACCCAUGUAAGAA [Another radom design]	0.0211
UGGUACAUGGCGGCCGCCACUUCACGUAAAAUAAAAGCUUGAGGAUCACCCAAGUAAUAAGUUGGGAGGACCGGGUCAUGUACCU	0.027
AUAACGAGUGGUGGAUAAUCCUCAUGUAAACGAGGACCGGUACGGCCGCCACUCGAUAACAUGAGGAUCACCCAUGUAAUAAUAA [|T'-M'-Trp-Ms2|_Design17]	0.0208

Same assay, conditions: Eterna round: R107; input ligand: theophylline 2 mM

Sequence	apparent KD of MS2 coat protein [µM]
AGGUACGAAAACGUGGGUGAGUCGUACCAACGAGGACCGGUACGGCCGCCACUCGAAUAAACAUGAGGAUCACCCAUGUAAUAAU [T''-M-T'-T-MS2 - Design 6]	0.0665
AAUGUCGGAUCGGCCGCCACUGGUUGGCCCUGUGUACAUGAGGAUCACCCAUGUCCAUCCCAAACCAGGACCGGGAUCUUUAUGU [Xeananor]	0.0404
GAGCGCGUGGACUGGCGUGCUCCGCUCCGUCGAGGACCGGUACGGCCGCCACUCGACAUGAGGAUCACCCAUGUGUGCGCUCGCG [#1 Exclusion - Tryptophan A Attempt #19 (HarryS)]	0.317
AGCUCGCGAAAGCGAGCAACAUGAUCCGAAGGAGCGCGCGAAAGCGCAGGUAGGUCGCGGACAUGAGGAUCACCCAUGUCUCCUU [MAT - Exclusion Arginine A - Mod of Eli - D14]	0.0632
CCUCGUGCAACAUGAGGAUCACCCAUGUACCGAGGACCGGUACGGCCGCCACUCGAAAACGAGUACCAUUAGCGAAAGCUGAUGG [Trp A SS mod1]	0.0142
GCCGCCGGUGCUUCAUUCCCUGAGCGACGGCGAGGACCGGUACGGCCGCCACUCGGCUCGGUACAUGAGGAUCACCCAUGUCUUU [theeternabot_exclusion_MS2_Trp_A_11]	0.0608
UGUAUGUGAUCUGAUACCAGAGAUGAUAACCUGAGGAUCACCCUGGUAAGGCGAAAGCCACUCCCUUGGCAGCAGAUCGCAUACU	0.0263
AGUUUAGACACGGCCGCCACUCGUGACAGAUUUCGCAGUGGUCAACAUGAGGAUCACCCAUGUCUGAGGACCGGGUGUUGAGUUU [XTryp B #7]	0.0534
ACAAGAGGGAUGGAUACCAGCGACAUGAGGAUCACCCAUGUAUGAGGAUCAGCCAUGUUAUGCCCUUGGCAGCCACGAAGAUCAG [XXXMULLIN]	0.104
AGAGUCUAGUCGGCCGCCACUCAUGUCCAAAGGACAUGAGGAUCACCCAUGUACCAAUGGUACAUGAGGACCGGGACUGGACUCA [Omei Tryp B SS C v2]	0.12
UCAUUUUUCACGGCCGCCACUUCAAGGUCCUGAGGCUGGGCAACACAUGAGGAUCACCCAUGUCGAAGGACCGGGUGAAGCUACC [theeternabot_sameState_MS2_Trp_B_34]	0.527
UGUAUGUGAUCUGAUACCAGCUAAUAAGCUUGAGGAUCACCCAAGUGGAGCGGAAACGCAGGCCCUUGGCAGCAGAUCGCAUACU [Denovo 9 #StaticStem #AlternativeMS2]	0.0117
AGCAACUAGUCGGCCGCCACUCAUAUUACAUGAGGAUCACCCAUGUAUACAUGGUUGUUAUAUUUGAGGACCGGGACAGUUGCAU [JR_SSTryptoB_Sub018]	0.0757
UAAGCGCGAGGAGACGGAACCAAUCUUGUUCGAGGACCGGUACGGCCGCCACUCGGCGUAAAACAUGAGGAUCACCCAUGUGCAA [theeternabot_exclusion_MS2_Trp_A_18]	0.0161
GUAAUUUAUUGAAGGAGCGUCGAAAAUGGGUAAACAUGAGGAUCACCCAUGUAAAGGGAACGACAGGUAGGUCGCAAUAGGUUAC [AstromonsSSArgB#29]	0.285
ACAUGAGGAUCACCCAUGUUCAUGCGGGAAGGAGCGUGCGGAAGCACAGGUAGGUCGCCCUCAAUAUCUAACGUUACGUUCAUGA [#26 Same State - Arginine A]	0.0144
GUCGGAGUCUGAAGGAGCGACAUGAGGAUCACCCAUGUCUCCCGUUAUGGGAGUUCCUUAGGUCAGGUAGGUCGCAGACUCCGAC [#1 Exclusion - Arginine B Attempt #25 (Inspired by Omei)]	0.144
UUGUGGCGCUCGGCCGCCACUCCGACAUGAGGAUCACCCAUGUUCUACAUGAGGAUCACCCAUGUGAGGACCGGGAGACACUUCC [Exclusion Tryptophan B GF13]	0.116
GAGCUGAUGUAGGCCGGAUAUCCGGGAGAUACCAGUACAGAAAUGUACCCUUGGCAGCUCUUUCUUACAUGAGGAUCACCCAUGU [Ex Theophylline A 27]	0.0191
UGUAUGUGAUCUGAUACCAGUCCAACUGGUAAAGCACGAGGAUCACCCGUGUAAAAUUGGGACCCUUGGCAGCAGAUCGCAUACU	0.0578
GGAUGGAACUCGGCCGCCACUGGUGAUCCUAAUGUACAUGAGGAUCACCCAUGUACAUGAGAAGAUAGGACCGGGAGAUAAGGGA [Tryptophan B V4 (+4G)]	0.0263
AGCUCUGAUACGGCCGCCACUAGAUGGUGUUGUAAGAGACGCCUACAUGAGGAUCACCCAUGUCAUAGGACCGGGUAUAAAUACA [theeternabot_sameState_MS2_Trp_B_8]	0.0464
AAGAAGUUUUGAUUUUUAUGAAGUAGUGAUACCAGUUAAGAAAGAGACCCUUGGCAGCGCAACAUGAGGAUCACCCAUGUAAGAA [Another radom design]	0.0197
UGGUACAUGGCGGCCGCCACUUCACGUAAAAUAAAAGCUUGAGGAUCACCCAAGUAAUAAGUUGGGAGGACCGGGUCAUGUACCU	0.0247
AUAACGAGUGGUGGAUAAUCCUCAUGUAAACGAGGACCGGUACGGCCGCCACUCGAUAACAUGAGGAUCACCCAUGUAAUAAUAA [|T'-M'-Trp-Ms2|_Design17]	0.0213

Same assay, conditions: Eterna round: R107; input ligand: tryptophan 2.4 mM

Sequence	apparent KD of MS2 coat protein [µM]
AGCUCGCGAAAGCGAGCAACAUGAUCCGAAGGAGCGCGCGAAAGCGCAGGUAGGUCGCGGACAUGAGGAUCACCCAUGUCUCCUU [MAT - Exclusion Arginine A - Mod of Eli - D14]	0.0622
CCUCGUGCAACAUGAGGAUCACCCAUGUACCGAGGACCGGUACGGCCGCCACUCGAAAACGAGUACCAUUAGCGAAAGCUGAUGG [Trp A SS mod1]	0.0141
AGUGUUAUAACUGAUACCAGACCUUUGCUUAUACAUGAGGAUCACCCAUGUAAAAUGGCUGUCCCUUGGCAGCAGAGAAUACACA [#07 Same State - Theophylline B]	0.0471
UGUAUGUGAUCUGAUACCAGAGAUGAUAACCUGAGGAUCACCCUGGUAAGGCGAAAGCCACUCCCUUGGCAGCAGAUCGCAUACU	0.039
UCGUGUAUAUCGGAUACCAGUGAAAUCGAUACAUGAGGAUCACCCAUGUGAGAGGAUGUACACCCUUGGCAGCUGUAUAUAUCUG [ll,lmullin]	0.0204
AGCGAGAUCCGUGAUACCAGCUACAUGAGGAUCACCCAUGUGAGCGCGAAAGUGCUGUGUAGCCCUUGGCAGCACAGUGGAUCUC [#29 Exclusion-TheophyllineB]	0.0113
ACAAGAGGGAUGGAUACCAGCGACAUGAGGAUCACCCAUGUAUGAGGAUCAGCCAUGUUAUGCCCUUGGCAGCCACGAAGAUCAG [XXXMULLIN]	0.0216
UACAUGAGGAUCACCCAUGUAUGAAUGGAUACCAGAUAAAAUAAGGUCCCUUGGCAGCUAGUGAAUCGAGGGUGGGUAUCAUGUU [#14 Exclusion-TheophyllineA]	0.00989
UGUAUGUGAUCUGAUACCAGCUAAUAAGCUUGAGGAUCACCCAAGUGGAGCGGAAACGCAGGCCCUUGGCAGCAGAUCGCAUACU [Denovo 9 #StaticStem #AlternativeMS2]	0.0707
UAAGCGCGAGGAGACGGAACCAAUCUUGUUCGAGGACCGGUACGGCCGCCACUCGGCGUAAAACAUGAGGAUCACCCAUGUGCAA [theeternabot_exclusion_MS2_Trp_A_18]	0.0164
GUAAUUUAUUGAAGGAGCGUCGAAAAUGGGUAAACAUGAGGAUCACCCAUGUAAAGGGAACGACAGGUAGGUCGCAAUAGGUUAC [AstromonsSSArgB#29]	0.197
ACAUGAGGAUCACCCAUGUUCAUGCGGGAAGGAGCGUGCGGAAGCACAGGUAGGUCGCCCUCAAUAUCUAACGUUACGUUCAUGA [#26 Same State - Arginine A]	0.0155
GUCGGAGUCUGAAGGAGCGACAUGAGGAUCACCCAUGUCUCCCGUUAUGGGAGUUCCUUAGGUCAGGUAGGUCGCAGACUCCGAC [#1 Exclusion - Arginine B Attempt #25 (Inspired by Omei)]	0.14
GAGCUGAUGUAGGCCGGAUAUCCGGGAGAUACCAGUACAGAAAUGUACCCUUGGCAGCUCUUUCUUACAUGAGGAUCACCCAUGU [Ex Theophylline A 27]	0.0134
UGUAUGUGAUCUGAUACCAGUCCAACUGGUAAAGCACGAGGAUCACCCGUGUAAAAUUGGGACCCUUGGCAGCAGAUCGCAUACU	0.115
GGAUGGAACUCGGCCGCCACUGGUGAUCCUAAUGUACAUGAGGAUCACCCAUGUACAUGAGAAGAUAGGACCGGGAGAUAAGGGA [Tryptophan B V4 (+4G)]	0.0207
AGCUCUGAUACGGCCGCCACUAGAUGGUGUUGUAAGAGACGCCUACAUGAGGAUCACCCAUGUCAUAGGACCGGGUAUAAAUACA [theeternabot_sameState_MS2_Trp_B_8]	0.0182
AAGAAGUUUUGAUUUUUAUGAAGUAGUGAUACCAGUUAAGAAAGAGACCCUUGGCAGCGCAACAUGAGGAUCACCCAUGUAAGAA [Another radom design]	0.0219
UGGUACAUGGCGGCCGCCACUUCACGUAAAAUAAAAGCUUGAGGAUCACCCAAGUAAUAAGUUGGGAGGACCGGGUCAUGUACCU	0.0166
